Results from publication doi:10.1101/600387.

Target: Sulfolobus acidocaldarius R2-like ligand-binding oxidase (Sulfolobus acidocaldarius)
Assay: crystal structure

Sulfolobus acidocaldarius R2-like ligand-binding oxidase (enzyme)
stoichiometry N: 2
